The target of the test is T1, thioredoxin (Escherichia coli (strain K12), UniProt P0AA25 2-109 = thioredoxin).
T1 construct: Negative control antigen; also called Trx; TrxA
In words: ELISA (FIG. 64).

T1 sequence (P0AA25 2-109 limits assumed): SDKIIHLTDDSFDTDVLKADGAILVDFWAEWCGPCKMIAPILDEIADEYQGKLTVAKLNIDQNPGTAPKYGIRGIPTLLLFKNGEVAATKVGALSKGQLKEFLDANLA

B1: mouse human chimeric anti-R273H p53 antibody clone MH 13E4 (antibody, human IgG1, V domains shown)
VH: EVQLLETGGDLVTPGGSLKLSCAASGFSFSDYYMYWVRQTPEKRLEWVATISVGGTYTFYSDNVKGRFVISRDNARKNLHLEMNSLKSEDAAMYYCVRDGNDGKFLGYWGQGTFVTVTV
VL: DIVMTQSPLSLPVNLGDQVSLSCRSSQSIVHNNGDTYLEWYLQKPGQSPKLLIYKVSNRFSGVPDRFSGSGSGTDFTLKISRVEAEDLGIYYCFQGSHLPLTFGSGTKLELK
notes: Mouse Fv with human IgG1 constant region; also called chimeric 13E4
Consider B1, for which the binding result was “no binding (tested: 1 ng/µl)”.

Source of the values: patent US20230257457A1 (published 2023).
